Patent publication US8685658B2, “Compositions and methods for the treatment of diseases associated with aberrant cilia assembly and regulation” (Fox Chase Cancer Center, priority 2006, dated 2014)

How the values were obtained:
hTERT-RPE1 cells [1] = test: growth factor-induced disassembly of cilia in hTERT-RPE1 cells; type: cell-based; conditions: 10 ng/ml
Procedure: FIG. 4. Growth factor-induced disassembly of cilia in hTERT-RPE1 cells. A. Time course of disassembly of cilia in cells treated with EGF, PDGF, and TGF-β. […] B. Western blot indicating T288-phosphorylated and total AurA in cells treated with PDGF or EGF, at times indicated after treatment. C. Immunofluorescence depicting cilia (red, acetylated a α-tubulin) and phospho-AurA (green) staining at the basal body at 2 hours after stimulation with PDGF, EGF, or serum. Phosphorylated AurA is apparent in PDGF- and serum-treated cells, but not EGF-treated cells: further, many well-formed cilia are apparent in EGF-treated cells (marked with asterisks) in contrast to other conditions. Scale bar represents […].
hTERT-RPE1 cells were grown in DMEM with 10% fetal bovine serum (FBS). For analysis of ciliary disassembly, cells were plated at 30% confluence in plates containing glass cover slips, and starved for 48 hours (in Opti-MEM or regular DMEM, without added serum) to induce cilia formation, followed by treatments described hereinbelow. […] The remaining cells on plate were lysed, then either directly analyzed by Western blot analysis, or used for immunoprecipitation (IP)-kinase reaction to measure AurA activity.

hTERT-RPE1 cells [2] = test: loss of cilia after microinjection of AurA proteins into ciliated hTERT-RPE1 cells; type: cell-based; conditions: 0.05 μM protein microinjected, low serum medium, as soon as cells could be fixed
Procedure: For microinjection, recombinant glutathione-S-transferase (GST), GST fused AurA mutants T288A and D274N) produced from BL21 (DE3) bacteria were purified using the MicroSpin GST Purification Module (Amersham Biotech.). Purified recombinant AurA was purchased from Upstate; this AurA was pre-activated based on incubation with ATP. […] To prepare lysates for Western blotting and IP, mammalian cells were disrupted by M-PER lysis buffer (Pierce) supplemented with EDTA-free protease inhibitor cocktail (Roche). Lysates used for IP were incubated overnight with antibody at 4° C., subsequently incubated for 2 hours with protein A/G-sepharose (Pierce), washed, and resolved by SDS-PAGE. Western blotting was performed using standard procedures and proteins visualized using the West-Pico system (Pierce). Antibodies used included mouse monoclonal antibody (mAb) anti-HEF1 2G9 (Pugacheva and Golemis, 2005), anti-α-tubulin mAb (Sigma), anti-AurA (BD Bioscience) for Western blotting, anti-AurA rabbit polyclonal (Cell Signaling) for IP, anti-Phospho-AurA/T288 (BioLegend), anti-Phospho-AurA/T288 (Cell Signaling), anti-HDAC6 rabbit polyclonal (Upstate; 1:5000), anti-HDAC2 rabbit polyclonal (Invitrogen) and mAb anti-β-actin (AC15, Sigma), anti-IFT88 and anti-IFT20. Secondary horseradish peroxidase (HRP)-conjugated antibodies were from Amersham Biotech.
Microinjections were performed on a Nikon TE300 Microscope (Nikon, Melville, N.Y.) that was equipped with an Eppendorf Transjector 5246 semi-automatic microinjector and micromanipulator (Eppendorf, Westbury, N.Y.). […] Proteins were pre-filtered through a 0.2-μm Milliopore membrane and mixed with Dextran Green488 (Molecular Probes) to mark injected cells. Injected cells were incubated at 37° C. before fixation. Typically, 150 cells were microinjected in each of 3 experiments.

[3] = target: T1, in vitro translated and immunoprecipitated HDAC6, Q9UBN7
T1 chain: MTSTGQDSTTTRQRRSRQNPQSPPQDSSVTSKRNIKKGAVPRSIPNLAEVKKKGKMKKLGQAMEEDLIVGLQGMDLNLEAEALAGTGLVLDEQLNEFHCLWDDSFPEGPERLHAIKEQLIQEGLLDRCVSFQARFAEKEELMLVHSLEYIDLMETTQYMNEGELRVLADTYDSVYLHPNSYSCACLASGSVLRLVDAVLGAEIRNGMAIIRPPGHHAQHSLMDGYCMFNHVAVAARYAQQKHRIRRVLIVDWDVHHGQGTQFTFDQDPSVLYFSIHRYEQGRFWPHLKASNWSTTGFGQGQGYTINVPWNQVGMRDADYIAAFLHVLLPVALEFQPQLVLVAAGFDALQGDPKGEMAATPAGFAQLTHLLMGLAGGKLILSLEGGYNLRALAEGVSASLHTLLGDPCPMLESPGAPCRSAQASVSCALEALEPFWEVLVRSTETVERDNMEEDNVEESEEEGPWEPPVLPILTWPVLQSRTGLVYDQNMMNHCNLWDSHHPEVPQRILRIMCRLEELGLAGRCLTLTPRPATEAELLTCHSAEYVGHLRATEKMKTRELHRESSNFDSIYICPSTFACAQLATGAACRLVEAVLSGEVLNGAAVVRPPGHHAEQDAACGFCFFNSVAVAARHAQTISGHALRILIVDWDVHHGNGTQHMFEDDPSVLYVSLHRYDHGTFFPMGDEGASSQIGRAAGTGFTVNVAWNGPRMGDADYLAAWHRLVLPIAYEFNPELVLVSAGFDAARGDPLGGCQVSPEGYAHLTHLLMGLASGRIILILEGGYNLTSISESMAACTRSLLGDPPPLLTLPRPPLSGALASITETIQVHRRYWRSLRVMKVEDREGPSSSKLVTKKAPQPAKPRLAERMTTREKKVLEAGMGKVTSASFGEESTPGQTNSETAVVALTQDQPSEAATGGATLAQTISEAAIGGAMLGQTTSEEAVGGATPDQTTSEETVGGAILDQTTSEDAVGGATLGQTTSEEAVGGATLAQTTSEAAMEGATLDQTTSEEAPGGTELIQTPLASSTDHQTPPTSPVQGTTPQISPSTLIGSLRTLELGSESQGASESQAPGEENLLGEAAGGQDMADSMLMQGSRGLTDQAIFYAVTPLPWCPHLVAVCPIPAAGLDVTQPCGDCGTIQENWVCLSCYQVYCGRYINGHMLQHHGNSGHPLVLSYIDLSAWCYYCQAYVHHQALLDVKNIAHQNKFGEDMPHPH

[4] = target: recombinant glutathione-S-transferase (GST)

Molecule	ciliary disassembly response to growth factor (hTERT-RPE1 cells [1])	injected cells lacking cilia (hTERT-RPE1 cells [2])	in vitro tubulin deacetylation assay [3]	in vitro kinase assay (32P autoradiography) [4]
PDGF	partial response			
recombinant activated AurA (Upstate) (protein) MDRSKENCISGPVKATAPVGGPKRVLVTQQFPCQNPLPVNSGQAQRVLCPSNSSQRIPLQAQKLVSSHKPVQNQKQKQLQATSVPHPVSRPLNNTQKSKQPLPSAPENNPEEELASKQKNEESKKRQWALEDFEIGRPLGKGKFGNVYLAREKQSKFILALKVLFKAQLEKAGVEHQLRREVEIQSHLRHPNILRLYGYFHDATRVYLILEYAPLGTVYRELQKLSKFDEQRTATYITELANALSYCHSKRVIHRDIKPENLLLGSAGELKIADFGWSVHAPSSRRTTLCGTLDYLPPEMIEGRMHDEKVDLWSLGVLCYEFLVGKPPFEANTYQETYKRISRVEFTFPDFVTEGARDLISRLLKHNPSQRPMLREVLEHPWITANSSKPSNCQNKESASKQS		more than 80%	AurA-phosphorylated HDAC6 was much more potent than unphosphorylated HDAC6 in deacetylating α-tubulin	AurA phosphorylated HDAC6, but not HDAC2 or the GST negative control
